The source of these data is the supplement of paper PMC9112550, “Optimization of the antimicrobial peptide Bac7 by deep mutational scanning” (BMC Biology, 2022).

This data set deals with Escherichia coli TOP10. Briefly: shrunken log2 fold change of peptide-encoding DNA abundance (4.5 h post-induction vs induction); higher = less antimicrobial activity (less host growth inhibition). Conditions: time post-induction: 4.5 h; library: site-saturation at positions 5, 18, 19, 20.
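Note: peptides expressed intracellularly from a pBAD plasmid library in pooled LB shake-flask culture, induced with 0.3% L-arabinose, DNA abundance read by NGS, three biological replicates, DESeq2 with apeglm shrinkage.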

Regarding RRIRQRPPRLPRPRPRPEHWPRP, the “shrunken log2 fold change” value was 0.0788.

With RRIRVRPPRLPRPRPRPTIFPRP, the “shrunken log2 fold change” value was -0.469. With RRIRDRPPRLPRPRPRPIFTPRP the figure was -0.0502. As to RRIRRRPPRLPRPRPRPQFNPRP, the “shrunken log2 fold change” value was -0.323. As to RRIRQRPPRLPRPRPRPQHYPRP, the “shrunken log2 fold change” value was -0.447.

As for RRIRERPPRLPRPRPRPHPVPRP, the “shrunken log2 fold change” value was -0.277. With RRIRWRPPRLPRPRPRPCLLPRP the figure was -0.188; with RRIRRRPPRLPRPRPRPMCEPRP, 0.516; with RRIRWRPPRLPRPRPRPFIKPRP, -0.686. As to RRIRERPPRLPRPRPRPTKMPRP, the “shrunken log2 fold change” value was -0.22.

Take RRIRTRPPRLPRPRPRPWMKPRP: the “shrunken log2 fold change” value amounted to 0.0159. With RRIRARPPRLPRPRPRPDLNPRP the figure was 0.473; with RRIRSRPPRLPRPRPRPCNPPRP, -0.212; with RRIRRRPPRLPRPRPRPYTIPRP, -0.566. Regarding RRIRIRPPRLPRPRPRPYRAPRP, the “shrunken log2 fold change” value was -0.77.

Turning to RRIRNRPPRLPRPRPRPEGFPRP, the “shrunken log2 fold change” value was 0.0136. With RRIRKRPPRLPRPRPRPEPLPRP the figure was 0.636. With RRIRTRPPRLPRPRPRPRVLPRP the figure was 0.242; with RRIRERPPRLPRPRPRPWKDPRP, -0.162; with RRIRYRPPRLPRPRPRPVIHPRP, -0.0643. In the case of RRIRMRPPRLPRPRPRPEQAPRP it was 4.07; in that of RRIRSRPPRLPRPRPRPFNMPRP, -0.907.

Consider RRIRVRPPRLPRPRPRPPCQPRP, for which the “shrunken log2 fold change” value is 0.0844.

For RRIRQRPPRLPRPRPRPLMDPRP, the “shrunken log2 fold change” value worked out at 0.0125. With RRIRNRPPRLPRPRPRPWMEPRP the figure was -0.00208; with RRIRFRPPRLPRPRPRPDLAPRP, 0.0811; with RRIRQRPPRLPRPRPRPAAWPRP, 0.245. Take RRIRWRPPRLPRPRPRPPESPRP: the “shrunken log2 fold change” value is 0.225. In the case of RRIRARPPRLPRPRPRPDGDPRP it was -0.036. Consider RRIRERPPRLPRPRPRPKWIPRP, for which the “shrunken log2 fold change” value is -0.54.

As to RRIRMRPPRLPRPRPRPSYMPRP, the “shrunken log2 fold change” value was -0.276. With RRIRLRPPRLPRPRPRPEMFPRP the figure was -0.00904; with RRIRPRPPRLPRPRPRPTEEPRP, 0.551; with RRIRMRPPRLPRPRPRPLPGPRP, 0.8. In the case of RRIRARPPRLPRPRPRPGGNPRP it was 0.2.

In the case of RRIRARPPRLPRPRPRPEEYPRP, the “shrunken log2 fold change” value was -0.0897. With RRIRLRPPRLPRPRPRPESQPRP the figure was -0.000253; with RRIRQRPPRLPRPRPRPRFQPRP, 0.202.

Consider RRIRLRPPRLPRPRPRPIQPPRP, for which the “shrunken log2 fold change” value stood at 0.0112.

In the case of RRIRPRPPRLPRPRPRPVQLPRP, the “shrunken log2 fold change” value is -0.135.

RRIRHRPPRLPRPRPRPPGYPRP: the “shrunken log2 fold change” value is 0.0632.

Take RRIRNRPPRLPRPRPRPIQPPRP: the “shrunken log2 fold change” value is -0.213.

As for RRIRHRPPRLPRPRPRPVWVPRP, the “shrunken log2 fold change” value is -0.0634. Consider RRIRFRPPRLPRPRPRPTEGPRP, for which the “shrunken log2 fold change” value was -0.289. Regarding RRIRFRPPRLPRPRPRPAYCPRP, the “shrunken log2 fold change” value was -0.219.

In the case of RRIRYRPPRLPRPRPRPYMAPRP, the “shrunken log2 fold change” value is -1.71.

As to RRIRDRPPRLPRPRPRPNRAPRP, the “shrunken log2 fold change” value stood at 0.563. In the case of RRIRTRPPRLPRPRPRPTCHPRP it was -0.405; in that of RRIRVRPPRLPRPRPRPSPQPRP, 0.0525; in that of RRIRGRPPRLPRPRPRPSQRPRP, 0.181.
